The record followed here is patent US20260001926A1.

This test has as its target fibroblast growth factor receptor (FGFR). The test is described as follows: cell-based or functional assay.

Take “Bovine wild-type FGF2 (SEQ ID NO: 1) (from UniProt P03969 11-155) (ligand)”: the EC50 (luciferase reporter in HEK293T cells transfected with plasmid FJ773212 / pGL4.33) stood at 0.2 ng/ml.
